Test results reported in PMC4893161, “The Dynamic Localization of Cytoplasmic Dynein in Neurons Is Driven by Kinesin-1” (Neuron, 2016).

Assays:
[1] = molecular target: T1, WD1^pept, TAMRA-conjugated 11-amino-acid peptide centered on the first tryptophan motif of DIC1 (TAMRA-conjugated (position not given)); test: fluorescence polarisation; TAMRA-conjugated DIC1 tryptophan-motif peptides with purified KLC1 or KLC2 TPR domain; KD values determined at 150 mM NaCl; conditions: both partners purified
T1 construct: 11 residues of dynein intermediate chain 1 centered on the first tryptophan motif (WD1) in AS loop 1; also called WD1 peptide; peptide of the first DIC1 tryptophan motif

[2] = molecular target: T2, mCherry-tagged DIC1a (dynein intermediate chain 1, isoform a), wild-type (UniProt Q63100 1-643); test: co-IP; COS cells cotransfected with mCherry-tagged DIC1a (wild-type or WD mutants) and HA-tagged KLC1 or KLC2; IP with anti-mCherry; western blotting with anti-DIC and anti-HA; conditions: partners not purified
T2 construct: cytoplasmic dynein intermediate chain 1, neuron-specific isoform DIC1a with both alternatively spliced regions (AS loop 1 with WD1, AS loop 2 with WD2); also called WT DIC1a; source: COS cells, cotransfected, in lysate
T2 sequence (Q63100 whole entry, canonical isoform): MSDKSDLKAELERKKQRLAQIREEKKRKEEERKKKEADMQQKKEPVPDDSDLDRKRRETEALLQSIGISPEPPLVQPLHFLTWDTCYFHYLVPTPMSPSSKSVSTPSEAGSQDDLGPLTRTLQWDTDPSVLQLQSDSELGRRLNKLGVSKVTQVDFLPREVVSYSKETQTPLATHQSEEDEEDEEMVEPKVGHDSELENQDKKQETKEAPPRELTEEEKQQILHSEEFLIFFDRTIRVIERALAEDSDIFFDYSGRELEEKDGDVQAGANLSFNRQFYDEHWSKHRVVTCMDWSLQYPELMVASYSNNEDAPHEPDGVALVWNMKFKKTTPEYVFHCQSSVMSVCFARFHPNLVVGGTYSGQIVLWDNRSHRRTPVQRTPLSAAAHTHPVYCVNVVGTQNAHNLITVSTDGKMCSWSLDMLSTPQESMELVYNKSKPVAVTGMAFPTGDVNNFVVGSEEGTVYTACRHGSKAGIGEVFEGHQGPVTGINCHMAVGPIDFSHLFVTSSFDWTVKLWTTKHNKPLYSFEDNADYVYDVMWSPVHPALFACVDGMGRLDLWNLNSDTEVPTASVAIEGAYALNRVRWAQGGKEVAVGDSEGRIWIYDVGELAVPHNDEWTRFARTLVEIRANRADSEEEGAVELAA

Binder	Kd [1] [µM]	fold co-immunoprecipitated relative to KLC1 [2] [fold]
KLC1^TPR, purified TPR domain of KLC1 (domain or fragment) YEIPARLRTLHNLVIQYASQGRYEVAVPSCKQALEDLEKTSGHDHPDVATMLNILALVYRDQNKYKDAANLLNDALAIREKTLGRDHPAVAATLNNLAVLYGKRGKYKEAEPLCKRALEIREKVLGKDHPDVAKQLNNLALLCQNQGKYEEVEYYYQRALGIYQTKLGPDRTPNVAKTKNNLASCYLKQGKFKQAETLYKEILTRAHEAEFGSVDDENKPIWMHAEEREECKGKQKDGSAFGEYGGWYKACKVDSPTVTTTLKNLGALYRRQGKFEAAETLEEAAMRSRKQGL	7.58 ± 0.61	–
HA-tagged KLC2 (kinesin light chain 2) (natural protein, UniProt O88448 1-599, looked up, kinesin light chain 2; source: COS cells, cotransfected, in lysate) MATMVLPREEKLSQDEIVLGTKAVIQGLETLRGEHRALLAPLASHEAGEAEPGSQERCLLLRRSLEAIELGLGEAQVILALSSHLGAVESEKQKLRAQVRRLVQENQWLREELAGTQQKLQRSEQAVAQLEEEKQHLLFMSQIRKLDEMLPQEEKGDVPKDSLDDLFPNEDEQSPAPSPGGGDVAAQHGGYEIPARLRTLHNLVIQYASQGRYEVAVPLCKQALEDLEKTSGHDHPDVATMLNILALVYRDQNKYKDAAHLLNDALAIREKTLGKDHPAVAATLNNLAVLYGKRGKYKEAEPLCKRALEIREKVLGKFHPDVAKQLSNLALLCQNQGKAEEVEYYYRRALEIYATRLGPDDPNVAKTKNNLASCYLKQGKYQDAETLYKEILTRAHEKEFGSVNGENKPIWMHAEEREESKDKRRDRRPMEYGSWYKACKVDSPTVNTTLRTLGALYRPEGKLEAAHTLEDCASRSRKQGLDPASQTKVVELLKDGSGRGHRRGSRDVAGPQSESDLEESGPAAEWSGDGSGSLRRSGSFGKLRDALRRSSEMLVRKLQGGGPQEPNSRMKRASSLNFLNKSVEEPVQPGGRVFLTAAL	–	5
